Experimental data taken from publication PMC11320123, “Unveiling the molecular mechanisms of the type IX secretion system's response regulator: Structural and functional insights” (PNAS Nexus, 2024).
Numbering of substitutions follows the chain as printed. In names and notes the source's numbering stands.

Legend:
[1] = target: T1, THB + APS truncation mutant of PorXFJ (Flavobacterium johnsoniae, UniProt A5FFU4); experiment: phosphodiesterase assay; type: biochemical; conditions: zinc-dependent
T1 construct: gene Fjoh_2906; REC domain truncated, residues 126–end; ~46 kDa; E. coli BL21
T1 sequence (A5FFU4 126-517): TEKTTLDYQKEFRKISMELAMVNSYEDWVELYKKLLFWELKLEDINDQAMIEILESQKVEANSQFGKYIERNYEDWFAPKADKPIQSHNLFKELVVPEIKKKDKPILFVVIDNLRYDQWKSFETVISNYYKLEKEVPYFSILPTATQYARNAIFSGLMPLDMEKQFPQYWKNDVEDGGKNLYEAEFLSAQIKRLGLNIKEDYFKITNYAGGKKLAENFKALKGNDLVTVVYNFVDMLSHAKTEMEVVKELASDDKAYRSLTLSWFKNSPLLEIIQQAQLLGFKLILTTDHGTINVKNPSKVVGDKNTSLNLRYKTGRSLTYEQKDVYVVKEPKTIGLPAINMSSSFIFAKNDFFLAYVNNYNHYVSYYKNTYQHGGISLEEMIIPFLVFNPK

[2] = target: T2, PorXFJ (Flavobacterium johnsoniae, UniProt A5FFU4); conditions: phosphate analogue; bound at REC phosphorylation site (Asp54) and at APS catalytic site near Thr271; primitive orthorhombic crystal form
T2 construct: gene Fjoh_2906
T2 sequence (A5FFU4 1-517): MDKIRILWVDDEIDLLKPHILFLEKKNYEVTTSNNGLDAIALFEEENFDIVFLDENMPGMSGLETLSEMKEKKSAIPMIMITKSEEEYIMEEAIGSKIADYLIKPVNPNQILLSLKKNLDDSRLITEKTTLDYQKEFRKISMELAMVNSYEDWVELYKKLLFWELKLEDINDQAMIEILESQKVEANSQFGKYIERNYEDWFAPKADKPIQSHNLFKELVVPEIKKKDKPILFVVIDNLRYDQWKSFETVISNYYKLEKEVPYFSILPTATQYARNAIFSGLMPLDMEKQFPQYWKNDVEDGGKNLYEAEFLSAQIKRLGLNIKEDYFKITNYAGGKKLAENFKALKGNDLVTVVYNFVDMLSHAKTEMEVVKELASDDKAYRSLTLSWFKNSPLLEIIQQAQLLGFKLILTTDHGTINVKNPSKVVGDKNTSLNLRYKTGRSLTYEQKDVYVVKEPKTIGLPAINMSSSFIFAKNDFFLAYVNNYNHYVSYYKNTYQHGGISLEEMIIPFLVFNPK

[3] = target: the molecule itself; experiment: SEC; protein incubated with zinc only (no AcP); Superdex200inc 10/300 GL for wild type and point mutants, Superdex75inc 10/300 GL for truncations; monomer to dimer
[4] = target: the molecule itself; experiment: SEC; protein incubated with acetyl phosphate (AcP) in the presence of magnesium; Superdex200inc 10/300 GL for wild type and point mutants, Superdex75inc 10/300 GL for truncations; monomer to dimer
[5] = target: the molecule itself; experiment: as above; remark: listed apart in the source
[6] = target: the molecule itself; experiment: SEC; protein incubated with zinc only (no AcP); Superdex200inc 10/300 GL for wild type and point mutants, Superdex75inc 10/300 GL for truncations; monomer to dimer; remark: listed apart in the source

**Q.** With `O=[N+]([O-])c1ccc(OP(=O)(O)Oc2ccc([N+](=O)[O-])cc2)cc1` [bis(p-nitrophenyl) phosphate] as the molecule, how does the phosphodiesterase assay [1] read?
**A.** full-length PorXFJ and the THB + APS truncation mutant

**Q.** Which X-ray co-crystal structure [2] does the source give for `[F][Be-]([F])[F]` [BeF3] here?
**A.** we have co-crystallized PorXFJ with the phosphate analog, BeF3

B1: PorXFJ APS + THB domains (126–end) (domain or fragment, UniProt A5FFU4 126-517, looked up)
chain: T1 sequence (A5FFU4 126-517)
notes: also called THB + APS truncation mutant; THB + APS domains; source: E. coli BL21, purified (Ni-NTA, thrombin cleavage, SEC); not shown: 10x-His, N-terminal, cleaved
**Q.** Does B1 bind [3]?
**A.** binds

B2: PorX from Flavobacterium johnsoniae (PorXFJ), wild type, full length (natural protein, UniProt A5FFU4 1-517, looked up)
chain: T2 sequence (A5FFU4 1-517)
notes: also called WT; Fjoh_2906; source: E. coli BL21, purified (Ni-NTA, thrombin cleavage, SEC); not shown: 10x-His, N-terminal, cleaved
**Q.** Does B2 bind [4]?
**A.** binds

B3: PorXFJ S384A/S388E double mutant (APS domain dimerization interface) (natural protein, UniProt A5FFU4 1-517, looked up)
chain: T2 sequence (A5FFU4 1-517) with S384A, S388E
notes: also called S348A/S388E (as printed once); source: E. coli BL21, purified (Ni-NTA, thrombin cleavage, SEC); not shown: 10x-His, N-terminal, cleaved
**Q.** Does B3 bind [5]?
**A.** binds

B4: PorXFJ L113E (REC domain dimerization interface mutant) (natural protein, UniProt A5FFU4 1-517, looked up)
chain: T2 sequence (A5FFU4 1-517) with L113E
notes: source: E. coli BL21, purified (Ni-NTA, thrombin cleavage, SEC); not shown: 10x-His, N-terminal, cleaved
**Q.** Does B4 bind [6]?
**A.** binds

B5: PorXFJ D360A/H364A double mutant (zinc coordination, Zn1 site) (natural protein, UniProt A5FFU4 1-517, looked up)
chain: T2 sequence (A5FFU4 1-517) with D360A, H364A
notes: as for B4
**Q.** Does B5 bind [5]?
**A.** binds

B6: PorXFJ D54A (REC domain phosphorylation-null mutant) (natural protein, UniProt A5FFU4 1-517, looked up)
chain: T2 sequence (A5FFU4 1-517) with D54A
notes: as for B4
**Q.** Does B6 bind [6]?
**A.** binds

B7: PorXFJ T271V (APS domain catalytically inactive mutant) (natural protein, UniProt A5FFU4 1-517, looked up)
chain: T2 sequence (A5FFU4 1-517) with T271V
notes: as for B4
**Q.** Does B7 bind [5]?
**A.** binds

B8: PorXFJ REC domain (1–121) (domain or fragment, UniProt A5FFU4 1-121, looked up)
chain: MDKIRILWVDDEIDLLKPHILFLEKKNYEVTTSNNGLDAIALFEEENFDIVFLDENMPGMSGLETLSEMKEKKSAIPMIMITKSEEEYIMEEAIGSKIADYLIKPVNPNQILLSLKKNLDD
notes: also called REC domain only truncation variant; source: E. coli BL21, purified (Ni-NTA, thrombin cleavage, SEC); not shown: 10x-His, N-terminal, cleaved
**Q.** Does B8 bind [5]?
**A.** binds

B9: PorXFJ REC + THB domains (1–208) (domain or fragment, UniProt A5FFU4 1-208, looked up)
chain: MDKIRILWVDDEIDLLKPHILFLEKKNYEVTTSNNGLDAIALFEEENFDIVFLDENMPGMSGLETLSEMKEKKSAIPMIMITKSEEEYIMEEAIGSKIADYLIKPVNPNQILLSLKKNLDDSRLITEKTTLDYQKEFRKISMELAMVNSYEDWVELYKKLLFWELKLEDINDQAMIEILESQKVEANSQFGKYIERNYEDWFAPKADK
notes: also called REC + THB domains truncated variant; source: E. coli BL21, purified (Ni-NTA, thrombin cleavage, SEC); not shown: 10x-His, N-terminal, cleaved
**Q.** Does B9 bind [3]?
**A.** binds
